Measured values reported in US20090082262.

Experiments:
[1] = tested on: T1, full size HCC-1 (HCC-1, residues 1-74)
T1 sequence: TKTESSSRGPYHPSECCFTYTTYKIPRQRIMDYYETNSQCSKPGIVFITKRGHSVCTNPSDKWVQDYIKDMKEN

PHC-1 (HCC-1[9-74]) = tested on: T2, PHC-1 (HCC-1[9-74])
T2 sequence: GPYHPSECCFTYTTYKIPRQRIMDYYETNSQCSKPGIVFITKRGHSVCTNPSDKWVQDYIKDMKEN

Row | Substance | tryptic digestion, 1 h, enzyme/substrate-ratio (w/w) 1/100 [1] | proteolytic degradation, activity after 90 min at 37° C with 10 or 100 IU urokinase (PHC-1 (HCC-1[9-74])) | proteolytic cleavage; product analysed by RP-HPLC, CCR5 aequorin assay, mass spectrometry and Edman degradation [1]
1 | trypsin | One cleavage product, the newly identified biologically active peptide PHC-1, comprising residues 9-74 of the HCC-1 precursor sequence, with the molecular mass of 7795 Da was obtained | – | –
2 | urokinase | – | No change of activity was observed after an incubation of 90 min at 37 °C | identifying PHC-1 and full size HCC-1 as the major compounds in these fractions
